The values below come from patent US20170210787A1 (Janssen / Centocor, published 2017).

Like-named read-outs stand apart in the source and are kept apart here.

The target of assay [1] is tau 299-369 (human). Put plainly: ELISA on biotinylated peptide captured on streptavidin plate, IgG titrated [a]. Background: An ELISA detects its analyte on a solid surface through an enzyme-linked reagent.
In assay [2] the target is tau 299-369 (human). Put plainly: peptide ELISA, 1 ug/mL.
For assay [3], the target named is tau 299-369 (human). Put plainly: ELISA on biotinylated peptide captured on streptavidin plate, IgG titrated [a]. This is another data set of the same source.
In assay [4] the target is tau 299-369 (human). The assay is described as follows: peptide ELISA, 1 ug/mL. This is another data set of the same source.

B1: CBTAU-27.1 (antibody, V domains shown)
VH: QVQLVESGPEMRKPGESLKISCKTSGYIFSDYWTAWVRQLPGKGLQWMGIIYSGDSDTRYHPSVQGHVTMSTDSSLTTAYLQWSSLKASDTGIYYCARLDARVDAGWQLDSWGQGTLVTVSS
VL: DIQLTQSPDSLAVSLGERATINCKSSQSVFSRDNNKNYLAWYQHKSGQPPKLLFFWASSRESGVSDRFSGSGSGTDFTLTIDNLQAEDVALYYCQHYFNTPHNFGQGTKLEIK
B1: the “EC50 (read off the curve)” value with tau 299-369 [1] was approximately 0.1 µg/mL; with tau 299-369 [3], approximately 0.2 µg/mL. The OD450 was 1 to 1.5 od with tau 299-369 [2] and more than 1.5 od with tau 299-369 [4].

One may read the EC50 (read off the curve) as the concentration that produces a half-maximal response. Low values mean an effect from little substance, high ones a need for much substance.
